These results are taken from patent publication US20210188980A1 (SHANGHAI EPIMAB BIOTHERAPEUTICS, published 2021).

Test [1] has as its target T1, human PD-1 ECD/Fc fusion protein (human).
T1 construct: also called huPD-1/Fc; HuPD-1 ECD/Fc
Kind of test: ELISA, coated huPD-1/Fc. The protocol: ELISA plates were incubated overnight at 4° C. with 50 μl of the synthetic human PD-1 ECD/Fc fusion protein targets described above diluted in PBS buffer, pH 7.4, at 1 μg/ml. Plates were washed four times in washing buffer (PBS containing 0.05% Tween 20), and blocked for 1 hour at 37° C. with 200 μl per well blocking buffer (1% BSA in PBS containing 0.05% Tween 20). After blocking buffer was removed, hybridoma supernatant (or later diluted purified mAbs) were added to the wells at 100 μl per well and incubated at 37° C. for 1 hour. The wells were washed four times with washing buffer, and anti-mouse HRP (Sigma) for mouse anti-human PD-1 antibody characterization were diluted 1:5000 and added to the wells at 100 μl per well. The plates were incubated for 1 hour at 37° C. and washed four times in washing buffer. 100 μl of tetramethylbenzidine (TMB) chromogenic solution were added per well. Following color development, the reaction was stopped with 1 Normal HCl and absorbance at 450 nm was measured on a SpectraMax M5e plate reader (Molecular Devices; San Jose, Calif., US).
A binding ELISA was performed in the same way as described in Example 1.3 above. Each purified antibody was 10-fold serially diluted and duplicated. After blocking of the 96-well assay plate with wells containing immobilized PD-1 ECD/Fc fusion protein targets, the purified antibody samples with diluted concentrations were added to wells of assay plates. The HRP-linked anti-mouse IgG antibody (A0168, Sigma) and TMB reagent were used to detect and develop the ELISA signal, which were read on a SpectraMax® M5e plate reader at wavelength of 450 nm. Curves were fitted using GraphPad software, and EC50 were calculated. Similarly, a receptor blocking assay (RBA) was also performed as described in Example 1.5 with titrated, purified antibodies, and top blocking percentages and IC50 values were determined.
In general terms: In an ELISA, binding on a coated surface is turned into a signal by an enzyme label.

In test [2] the target is T2, human PD-1 expressed on cells (human, UniProt Q15116 25-288).
T2 construct: whole, on cells; also called CHO-K1/huPD-1; CHO-K1-hPD-1 cells
Kind of test: FACS, CHO-K1/huPD-1 cells. The protocol: (§1) CHO-K1/huPD-1 or CHO-K1/cynoPD-1 cells, described above, were charged at 2×10⁴ cell per well into 96-well assay round-bottomed assay plates (Cat. No. 3799; Corning) and stained with purified anti-PD-1 antibodies. PD-1 antibodies were detected with AlexaFluor® Donkey anti-Mouse IgG (H+L) Highly Cross-Adsorbed Secondary Antibody, (Cat. No. A21202; Invitrogen), and cell fluorescence was monitored using a flow cytometer. The data were processed by GraphPad software, and EC50 values were calculated.
(In flow cytometry, cells or beads pass a laser one at a time.)

For test [3], the target named is T3, cynomolgus PD-1 expressed on CHO-K1 cells (cynomolgus monkey, UniProt B0LAJ3 25-288).
T3 construct: also called CHO-K1/cynoPD-1; CHO-K1-cynoPD-1
Kind of test: FACS, CHO-K1/cynoPD-1 cells. The method, then:
as §1

In test [4] the target is T1, human PD-1 ECD/Fc fusion protein. Description: SPR Biacore, mAb captured, huPD-1/Fc analyte. The method, then:
The binding kinetics of purified antibodies were measured by surface plasmon resonance using a Biacore […] instrument (GE Healthcare) using standard procedures. Briefly, goat anti-mouse IgG Fc polyclonal antibody (Genway) was directly immobilized across a biosensor chip, and antibodies samples were injected over reaction matrices at a flow rate of 5 μl/min. The association and dissociation rate constants, kₒₙ(M⁻¹ s⁻¹) and koff (s⁻¹) respectively, were determined with a continuous flow rate of 30 μl/min. Rate constants were derived by making kinetic binding measurements at five different concentrations of human PD-1/Fc protein. The equilibrium dissociation constant KD (M) of the reaction between antibodies and related target proteins was then calculated from the kinetic rate constants using the formula KD=koff/kₒₙ.
For orientation: Surface plasmon resonance follows binding to a sensor surface in real time, without labels.

Test [5] has the same target. Description: RBA ELISA on huPD-1/Fc; competitor biotin-huPD-L1/Fc. The method, then:
(§2) Supernatants displaying PD-1 specific activity were tested for the ability to block PD-1 binding to its ligands PD-L1 and PD-L2 using immobilized human PD-1 ECD/Fc as a target and PD-L1/Fc and PD-L2/Fc fusion proteins, prepared in the same manner as the PD-1 ECD/Fc binding proteins described in Example 1.3 above. To determine the relative potency of the antibody-containing supernatants, their ability to inhibit the binding of a human PD-1 ligand (PD-L1 or PD-L2) to human PD-1 protein was evaluated. ELISA plates were coated with 100 μl of 50 ng/m of huPD-1/Fc (i.e., the extracellular domain of PD-1 grafted onto the N-terminus of a human Fc region, recovered as a homodimer) in PBS and incubated overnight at 4° C. Plates were washed four times in washing buffer (PBS containing 0.05% Tween 20) and blocked for 1 hour at 37° C. with 200 μl per well of blocking buffer (1% BSA in PBS containing 0.05% Tween 20). After blocking buffer was removed, hybridoma supernatant (50 μl) was added to the wells, mixed with either 50 μl biotinylated human PD-L1/Fc ([…] final concentration) in blocking buffer or 50 μl biotinylated human PD-L2/Fc (final concentration 50 μg/ml) in blocking buffer, then incubated at 37° C. for 1 hour. Signal was developed by adding streptavidin-HRP (Sigma, Cat. No. S2468) (100 μl/well of streptavidin-HRP at 1:5000 dilution) and incubating for 40 minutes at 37° C. and washed four times in washing buffer. 100 μl of TMB solution were added per well. Following color development, the reaction was stopped with 1 Normal HCl and absorbance at 450 nm was measured. […]

The target is the same in test [6]. Kind of test: RBA ELISA on huPD-1/Fc; competitor biotin-huPD-L2/Fc. The protocol: as §2

Usually EC50 stands for the concentration at which the effect is half-maximal. The low end stands for greater potency, the high end for weaker potency. One may read the Kd as the free concentration of one partner at which half of the binding sites on the other are occupied at equilibrium, for simple one-to-one binding. A higher Kd goes with lower affinity. A word on the koff: it is the rate constant with which the complex falls apart. A word on the kon: it is a measure of how fast the partners come together. Read a low kon as slow association. Broadly, the IC50 is the concentration at which inhibition is half-maximal.

B1: mAb714 (antibody, V domains shown)
VH: EVHLQQSGPELVKPGASVKIFCKASGYTFTDNNVEWVKQSHGKSLEWIGDINPNNGDTLYSQYFKDKATLTVDKSSTTAYMELRSLTSEDTGLYYCARGKSDQFDYWGQGTTLTVSS
VL: DIQMTQSPASQSASLGESVTITCLASQTIGTWLAWYQQKPGKSPQLLIYAATSLADGVPSRFSGSGSGTKFSFKISSLQGEDFVSYYCQQLYSSPWTFGGGTKLEIK
notes: murine hybridoma anti-PD-1 mAb
For the molecule B1, the EC50 in test [1] turned out to be 0.05 nM; in test [2], 1.6 nM; in test [3], 0.8 nM. The affinity in test [4], expressed as Kd, was 2.11 nM. This molecule also gave a koff in test [4] of 0.00021 s⁻¹. The molecule further showed a kon in test [4] of 99400 M⁻¹ s⁻¹. Besides, the IC50 came out at 2.95 nM in test [5] and 2.24 nM in test [6]. Moreover, the “TOP inhibition (%)” value in test [5] was determined as 92.3%; in test [6], 93.1%.

B2: mAb715 (antibody, V domains shown)
VH: EVMLVESGGGLLKPGGSLKLSCAASGFTFSSYAMSWVRQTPEKRLEWVATISGGGRDTYYPDSVKGRFTISRDNAKNTLYLQMTSLRSEDTAFYYCAGQGGTYLFASWGQGTLVTVSA
VL: DIVMTQSHKFMSTSVGDSVTITCKASQDVNTAVAWYQQKPGQPPKVLIYWASTRHTGVPDRFTGSGSGTDYTLTISSVQAEDLALYYCQQHYTTPYTFGGGTKLEIK
notes: as for B1
With B2, the EC50 is 0.04 nM in test [1], 1.1 nM in test [2] and 0.9 nM in test [3]. In test [4], this molecule registered a Kd of 1.5 nM. The molecule further yielded a koff in test [4] of 0.000237 s⁻¹. For the same molecule, in test [4], the kon was determined as 158000 M⁻¹ s⁻¹. Besides, the results for the IC50 in test [5] and in test [6] were 2.91 nM and 2.17 nM, respectively. Further, the “TOP inhibition (%)” value in test [5] came to 86.9%; in test [6], 88%.

B3: mAb709 (antibody, V domains shown)
VH: EVKLVESGGGLVKPGGSLKLSCAASGFTFSFYTMSWVRQTPEKRLEWVATISGGGRDTYYPDSVKGRFTISRDNAKNTLYLHMSSLRSEDTALYYCAGQGGNYLFAYWGQGTLVTVSA
VL: DIVMTQSHKFMSTSVGDSVTITCKASQDVNTVVAWYQQKPGQSLKVLISWASTRHTGVPARFTGSGSGTDYTLTISSVQAEDLALYYCQQHYTTPYTFGGGTQLEIK
notes: as for B1
Take B3: in test [1], the EC50 was found to be 0.01 nM. Moreover, a half-maximal effect in test [2] (EC50) was put at 0.2 nM. The molecule further came in with an EC50 in test [3] of 0.2 nM. In test [4], this molecule gave a Kd of 0.939 nM, a dissociation rate constant (koff) of 0.000104 s⁻¹ and a kon of 111000 M⁻¹ s⁻¹. For the same molecule, in test [5], the half-inhibitory concentration (IC50) was 0.8 nM and the “TOP inhibition (%)” value turned out to be 91.6%. For the same molecule, in test [6], the IC50 is 0.52 nM and the “TOP inhibition (%)” value is 93.7%.

B4: mAb719 (antibody, V domains shown)
VH: EVKLVESGGGLVKPGGSLKLSCTASGFSFSSHLMSWVRQTPEKRLEWVAAISGGGADTYYPDSVKGRFTISRDNAKNTLYLQMRSLRSEDTALYYCTRQILAFDSWGQGTTLTVSS
VL: DIQMNQSPSSLSVSLGDTITITCHASQNIYVWLNWYQQKPGNIPKLLIYKASNLHTGVPSRFSGGGSGTGFTLTISSLQPEDIATYYCQQGQSYPWTFGGGTKLEIK
notes: as for B1
B4 yielded an EC50 in test [1] of 0.02 nM. In test [2], the EC50 amounted to 1.7 nM. In test [3], the EC50 stood at 2.1 nM. In addition, in test [4], the Kd is 3 nM, the koff turned out to be 0.000215 s⁻¹ and the kon turned out to be 71500 M⁻¹ s⁻¹. In addition, in test [5], the half-inhibitory concentration (IC50) amounted to 3.39 nM and the “TOP inhibition (%)” value stood at 96.5%. Besides, in test [6], the half-maximal inhibitory concentration (IC50) came to 1.85 nM and the “TOP inhibition (%)” value was found to be 95.2%.

B5: mAb703 (antibody, V domains shown)
VH: DVQLQESGPGLVKPSQSLSLTCSVTGYSITTGYYWNWIRQFPGNKLEWMGYMSYDGNNNYNPSLKNRISITRDTSKNQFLLRLNSVTTEDTATYFCARDRGTTILGGTMDYWGQGTSVTVS
VL: SIVMTQTPKFLFVSAGDRVTIACKASQSVSNDVAWYQQKPGQSPKLLIYYAFYRYTGVPDRFTGSGYGTDFTFTISTVQAEDLAVYFCQQDYSSPWTFGGGTKLEIK
notes: as for B1
In test [1], B5 displayed an EC50 of 0.05 nM. For the same molecule, a half-maximal response in test [2] (EC50) required 0.5 nM. In test [3], this molecule yielded a concentration giving a half-maximal response (EC50) of 0.7 nM. Besides, in test [4], binding was characterised by a dissociation constant (Kd) of 2.45 nM, the koff amounted to 0.00085 s⁻¹ and the association rate constant (kon) came out at 347000 M⁻¹ s⁻¹. Also, in test [5], the IC50 is 3 nM and the “TOP inhibition (%)” value worked out at 96%. Also, in test [6], the concentration for half-maximal inhibition (IC50) worked out at 2.02 nM and the “TOP inhibition (%)” value was found to be 95.7%.

B6: mAb713 (antibody, V domains shown)
VH: EVKLVESGGGLVKPGGSLELSCAASGFTSSDYGMHWVRQAPEKGLEWVAYISSGSYTIYYADTVKGRFTISRDNAKNTLFLQMTSLRSEDTAMYYCAKRGGSSHVNVMDYWGQGTSVTVSS
VL: DIQMTQSSSYLSVSLGGRVTITCKASDHINNWLAWYQQKPGNAPRLLISGATSLETGVPSRFSGSGSGKDYTLSITSLQTEDVATYYCQQYWSPPYTFGGGTKLEIK
notes: as for B1
B6: the EC50 in test [1] was determined as 0.08 nM; in test [2], 1.1 nM; in test [3], 0.9 nM. In test [4], the Kd amounted to 1.96 nM. The molecule also displayed a koff in test [4] of 0.000285 s⁻¹. The molecule further registered a kon in test [4] of 145000 M⁻¹ s⁻¹. The results for the IC50 in test [5] and in test [6] were 2.95 nM and 2.52 nM, respectively. Also, the “TOP inhibition (%)” value amounted to 94.4% in test [5] and 93.5% in test [6].

B7: mAb718 (antibody, V domains shown)
VH: QVQLQQSGAELVRPGASVTLSCKASGYTFTDYEMHWAKQTPVHGLEWIGVIEPESGGTVYNQKFKGKAKLTADKSSRTAYMELRSLTSEDSAVYYCTREGFNSDHYFDYWGQGTTLTVSS
VL: DVLMTQTPLSLPVSLGDQASISCRSSQNIVHSNGNTYLEWYLQKPGQSPKLLIYKVFNRFSGVPDRFSGSGSGTDFTLKISRVEAEDLGVYYCFQGSHVPYTFGGGTKLEIK
notes: as for B1
In the case of B7, in test [1], a half-maximal effect (EC50) was put at 0.02 nM. Moreover, in test [2], it took 3.2 nM to reach a half-maximal effect (EC50). The molecule further came in with an EC50 in test [3] of 4.2 nM. Further, in test [4], the affinity, expressed as Kd, was 4.84 nM; the koff was 0.000283 s⁻¹; the kon was found to be 58400 M⁻¹ s⁻¹. Moreover, in test [5], the 50% inhibitory concentration (IC50) is 4.19 nM and the “TOP inhibition (%)” value came out at 96.6%. Moreover, in test [6], the half-maximal inhibitory concentration (IC50) worked out at 1.91 nM and the “TOP inhibition (%)” value worked out at 96.6%.
